This note sets out measurements from patent US6001988, “High affinity nucleic acid ligands to lectins” (NeXstar Pharmaceuticals, Inc.).

Data set [1] deals with T1, L-selectin (LS-Rg) (Homo sapiens, UniProt P14151 P14151:39-332).
T1 chain: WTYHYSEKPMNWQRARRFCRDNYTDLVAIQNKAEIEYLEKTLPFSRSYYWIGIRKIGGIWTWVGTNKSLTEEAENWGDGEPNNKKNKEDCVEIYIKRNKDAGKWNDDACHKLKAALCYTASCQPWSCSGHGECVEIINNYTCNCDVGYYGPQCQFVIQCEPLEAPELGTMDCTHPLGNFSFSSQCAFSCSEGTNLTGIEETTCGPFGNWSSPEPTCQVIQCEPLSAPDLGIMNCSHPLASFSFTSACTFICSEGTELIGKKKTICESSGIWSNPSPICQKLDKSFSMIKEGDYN
Put plainly: filter; apparently 37 C column; synthetic full-length 201 control 3.8 nM. The settings on record: tags: human IgG2 Fc fusion (provided by A. Varki); label: 32P; hairpin.

Data set [2] addresses T1, L-selectin (LS-Rg). Put plainly: filter; room temp; 0.65 nM at 37 C. The settings on record: tags: human IgG2 Fc fusion (provided by A. Varki); label: 32P; hairpin.
In another data set the target is T2, P-selectin (PS-Rg) (Homo sapiens, UniProt P16109 P16109:42-321).
T2 chain: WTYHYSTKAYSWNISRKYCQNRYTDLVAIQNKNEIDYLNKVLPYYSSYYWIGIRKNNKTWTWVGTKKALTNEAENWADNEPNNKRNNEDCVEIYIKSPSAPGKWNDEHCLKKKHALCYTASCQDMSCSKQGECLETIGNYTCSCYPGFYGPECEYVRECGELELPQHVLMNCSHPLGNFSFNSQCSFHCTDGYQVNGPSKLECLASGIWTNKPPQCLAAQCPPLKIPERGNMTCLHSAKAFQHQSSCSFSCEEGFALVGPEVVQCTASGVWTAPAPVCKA
Put plainly: filter; room temp, Ca/Mg buffer. The conditions noted are these: tags: lectin, EGF and first two CRD domains fused to human IgG1 Fc (provided by A. Varki); chain copies: 2 (dimeric Fc chimera, inferred). As to the method: (§1) RNA was reverse transcribed into cDNA by AMV reverse transcriptase at 48° C. for 60 min in 50 mM Tris-Cl pH (8.3), 60 mM NaCl, 6 mM Mg(OAc)_2, 10 mM DTT, 100 pmol DNA primer, 0.4 mM each of dNTPs, and 0.4 unit/µl AMV RT. […] C) Nitrocellulose Filter Partitioning As described in SELEX Patent Applications, the nitrocellulose filter partitioning method was used to determine the affinity of RNA ligands for WGA and for other proteins. Filter discs (nitrocellulose/cellulose acetate mixed matrix, 0.45 µm pore size, Millipore; or pure nitrocellulose, 0.45 µm pore size, Bio-Rad) were placed on a vacuum manifold and washed with 4 ml of HBSS buffer under vacuum. Reaction mixtures, containing ^32P labeled RNA pools and unlabeled WGA, were incubated in HBSS for 10 min at room temperature, filtered, and then immediately washed with 4 ml HBSS. The filters were air-dried and counted in a Beckman LS6500 liquid scintillation counter without fluor. WGA is a homodimer, molecular weight 43.2 kD, with 4 GlcNAc binding sites per dimer. For affinity calculations, we assume one RNA ligand binding site per monomer (two per dimer). The monomer concentration is defined as 2 times the dimer concentration. The equilibrium dissociation constant, K_d, for an RNA pool or specific ligand that binds monophasically is given by the equation $$K_d=[P_f][R_f]/[RP]$$
(§2) The affinity of representative cloned ligands for LS-Rg, ES-Rg, PS-Rg, CD22β-Rg and WGA was determined by nitrocellulose partitioning and the results shown in Table XIV. The ligands are highly specific for L-selectin.
(§3) *Kds were determined at room temperature.

Another data set addresses T3, E-selectin (ES-Rg) (Homo sapiens, UniProt P16581 P16581:22-556).
T3 chain: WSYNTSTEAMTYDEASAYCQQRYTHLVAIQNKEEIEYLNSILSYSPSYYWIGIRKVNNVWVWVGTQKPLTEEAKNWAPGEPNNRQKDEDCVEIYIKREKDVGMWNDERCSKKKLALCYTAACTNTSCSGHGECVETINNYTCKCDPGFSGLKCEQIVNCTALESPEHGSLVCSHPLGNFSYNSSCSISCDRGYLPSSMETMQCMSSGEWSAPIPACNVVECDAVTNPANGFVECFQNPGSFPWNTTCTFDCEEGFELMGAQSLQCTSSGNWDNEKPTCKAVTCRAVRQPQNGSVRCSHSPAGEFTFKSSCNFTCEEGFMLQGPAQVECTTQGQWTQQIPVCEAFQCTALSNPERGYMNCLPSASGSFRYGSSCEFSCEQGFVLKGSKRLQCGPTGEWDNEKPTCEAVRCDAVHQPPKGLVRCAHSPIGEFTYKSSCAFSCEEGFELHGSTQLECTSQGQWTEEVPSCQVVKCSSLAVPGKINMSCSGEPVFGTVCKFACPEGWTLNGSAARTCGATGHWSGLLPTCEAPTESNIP
The data set can be described thus: filter; room temp, Ca/Mg buffer. The settings on record: tags: extracellular domain fused to human IgG1 Fc (provided by A. Varki); chain copies: 2 (dimeric Fc chimera, inferred). On the procedure: as §1, §2, §3

The target in data set [3] is T1, L-selectin (LS-Rg). Put plainly: filter; room temp; 6.0 nM at 37 C. The settings on record: tags: human IgG2 Fc fusion (provided by A. Varki); label: 32P.
Data set [4] addresses T1, L-selectin (LS-Rg). The data set can be described thus: filter; room temp; 6.8 nM at 37 C. The settings on record: tags: human IgG2 Fc fusion (provided by A. Varki); label: 32P; hairpin.
In data set [5] the target is T1, L-selectin (LS-Rg). Put plainly: filter; room temp; 9.6 nM at 37 C. The settings on record: tags: human IgG2 Fc fusion (provided by A. Varki); label: 32P.
For data set [6], the target named is T1, L-selectin (LS-Rg). The data set can be described thus: filter; room temp; 11.8 nM at 37 C. The conditions noted are these: tags: human IgG2 Fc fusion (provided by A. Varki); label: 32P; hairpin.
Data set [7] has as its target T1, L-selectin (LS-Rg). The data set can be described thus: filter; room temp; 23.2 nM at 37 C. The settings on record: tags: human IgG2 Fc fusion (provided by A. Varki); label: 32P; hairpin.
Data set [8] addresses T1, L-selectin (LS-Rg). Put plainly: filter; room temp; 1.8 nM at 37 C. The settings on record: tags: human IgG2 Fc fusion (provided by A. Varki), label: 32P.
The target of data set [9] is T1, L-selectin (LS-Rg). Put plainly: filter; room temp; 8.4 nM at 37 C. The settings on record: tags: human IgG2 Fc fusion (provided by A. Varki); label: 32P.
Data set [10] deals with T1, L-selectin (LS-Rg). The data set can be described thus: filter; room temp; 590 pM at 37 C. The conditions noted are these: tags: human IgG2 Fc fusion (provided by A. Varki); label: 32P; hairpin.
The target of data set [11] is T4, Ulex europaeus lectin UEA-II (Ulex europaeus, UniProt P22973 P22973:1-249).
T4 sequence: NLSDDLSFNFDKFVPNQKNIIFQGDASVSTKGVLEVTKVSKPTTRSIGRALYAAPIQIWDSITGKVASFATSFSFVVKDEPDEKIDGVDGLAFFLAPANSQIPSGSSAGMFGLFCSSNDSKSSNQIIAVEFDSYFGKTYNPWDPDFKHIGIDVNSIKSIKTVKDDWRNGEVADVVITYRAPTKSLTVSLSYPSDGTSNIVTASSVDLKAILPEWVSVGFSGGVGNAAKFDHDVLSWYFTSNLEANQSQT
Put plainly: filter; HBSS, room temp. The conditions noted are these: tags: E Y Laboratories; label: 32P. As to the method:
as §1, with “The specifically eluted fraction was processed for use in the following round. Fractions eluted from immobilized WGA were heated at 90° C. for 5 minutes in 1% SDS, 2% β-mercaptoethanol and extracted with phenol/chloroform. RNA was” for “RNA was”, “per dimer). […]” for “per dimer). The monomer concentration is defined as 2 times the dimer concentration. The equilibrium dissociation constant, K_d, for an RNA pool or specific ligand that binds monophasically is given by the equation $$K_d=[P_f][R_f]/[RP]$$”

For data set [12], the target named is T5, wheat germ agglutinin (WGA) (Triticum vulgare, UniProt P10968 P10968:27-197).
T5 sequence: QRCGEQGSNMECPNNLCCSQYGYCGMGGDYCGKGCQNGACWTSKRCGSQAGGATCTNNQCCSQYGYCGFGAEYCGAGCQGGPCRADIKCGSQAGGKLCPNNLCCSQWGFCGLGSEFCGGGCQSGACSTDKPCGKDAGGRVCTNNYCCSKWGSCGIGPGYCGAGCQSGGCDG
The data set can be described thus: filter; HBSS, room temp; printed as 11.2, SEQ 40. The settings on record: tags: free lectin, E Y Laboratories; label: 32P. On the procedure:
The specifically eluted fraction was processed for use in the following round. Fractions eluted from immobilized WGA were heated at 90° C. for 5 minutes in 1% SDS, 2% β-mercaptoethanol and extracted with phenol/chloroform. RNA was reverse transcribed into cDNA by AMV reverse transcriptase at 48° C. for 60 min in 50 mM Tris-Cl pH (8.3), 60 mM NaCl, 6 mM Mg(OAc)_2, 10 mM DTT, 100 pmol DNA primer, 0.4 mM each of dNTPs, and 0.4 unit/µl AMV RT. […] C) Nitrocellulose Filter Partitioning As described in SELEX Patent Applications, the nitrocellulose filter partitioning method was used to determine the affinity of RNA ligands for WGA and for other proteins. Filter discs (nitrocellulose/cellulose acetate mixed matrix, 0.45 µm pore size, Millipore; or pure nitrocellulose, 0.45 µm pore size, Bio-Rad) were placed on a vacuum manifold and washed with 4 ml of HBSS buffer under vacuum. Reaction mixtures, containing ^32P labeled RNA pools and unlabeled WGA, were incubated in HBSS for 10 min at room temperature, filtered, and then immediately washed with 4 ml HBSS. The filters were air-dried and counted in a Beckman LS6500 liquid scintillation counter without fluor. […]
The dissociation constants for representative members of families 1–9 and orphan ligands were determined by nitrocellulose filter binding experiments and are listed in Table III. […]

B1: 201T1 (49-mer) (ssDNA)
DNA: TAGCCAAGGTAACCAGTACAAGGTGCTAAACGTAATGGCTTCGGCTTAC
On to B1, for which, in the data set with L-selectin (LS-Rg) [1], the Kd was 4.8 nM.

B2: 137 (ssDNA)
DNA: CTACCTACGATCTGACTAGCTACCCCTTGGGCCTCATAGACAAGGTCTTAAACGTTAGCGCTTACTCTCATGTAGTTCC
In the data set with L-selectin (LS-Rg) [2], B2 had a Kd of 0.52 nM.

B3: 206 (ssDNA)
DNA: CTACCTACGATCTGACTAGCAGCGTTGTACGGGGTTACACACAACGATTTAGATGCTCTGCTTACTCTCATGTAGTTCC
B3: the Kd with P-selectin (PS-Rg) was found to be 600 nM; with E-selectin (ES-Rg), 100 nM; in the data set with L-selectin (LS-Rg) [3] it was 0.33 nM.

B4: 139 (ssDNA)
DNA: CTACCTACGATCTGACTAGCGGACAAGGCACTCGACGTAGTTTATAACTCCCTCCGGGCCGCTTACTCTCATGTAGTTCC
B4 returned a Kd in the data set with L-selectin (LS-Rg) [4] of 0.21 nM.

B5: 109 (ssDNA)
DNA: CTACCTACGATCTGACTAGCCCACCGTGATGCACGATACATGAGGGTGTGTCAGCGCATGCTTACTCTCATGTAGTTCC
In the data set with L-selectin (LS-Rg) [5], B5 displayed a Kd of 0.19 nM.

B6: 111 (ssDNA)
DNA: CTACCTACGATCTGACTAGCTACACAAGGTGCTAAACGTAGAGCCAGATCGGATCTGAGCGCTTACTCTCATGTAGTTCC
With B6, the Kd is 840 nM with P-selectin (PS-Rg), 1200 nM in the data set with E-selectin (ES-Rg) and 0.33 nM with L-selectin (LS-Rg) [6].

B7: 112 (ssDNA)
DNA: CTACCTACGATCTGACTAGCCGCATCCACATAGTTCAAGGGGCTACACGAAATATTGCAGCTTACTCTCATGTAGTTCC
B7 registered a Kd with L-selectin (LS-Rg) [7] of 0.3 nM.

B8: 128 (ssDNA)
DNA: CTACCTACGATCTGACTAGCAGGACCAAGGTGTTAAACGGCTCCCCTGGCTATGCCTCTTGCTTACTCTCATGTAGTTCC
In the data set with L-selectin (LS-Rg) [8] (hairpin), B8 registered a Kd of 0.31 nM.

B9: 214 (ssDNA)
DNA: CTACCTACGATCTGACTAGCTGATGCGACTTTAGTCGAACGTTACTGGGGCTCAGAGGACAGCTTACTCTCATGTAGTTCC
With B9, the Kd in the data set with L-selectin (LS-Rg) [9] was 0.66 nM.

B10: 179 (ssDNA)
DNA: CTACCTACGATCTGACTAGCCACATGCCTGACGCGGTACAAGGCCTGGACGTAACGTTGGCTTACTCTCATGTAGTTCC
In the data set with L-selectin (LS-Rg) [10], B10 showed a Kd of 0.18 nM.

B11: 11.20 (ssRNA)
RNA: GGGAAAAGCGAAUCAUACACAAGAUUGGUCGUACUGGACAGAGCCGUGGUAGAGGGAUUGGGACAAAGUGUCAGCUCCGCCAGAGACCAACCGAGAA
modifications: 2'-NH2 all C and U
With B11, the figures for the Kd in data set [11] and in data set [12] were 2200 nM and 1.4 nM, respectively.

B12: 201T3 (41-mer) (ssDNA)
DNA: GTAACCAGTACAAGGTGCTAAACGTAATGGCTTCGGCTTAC
Consider B12, for which the Kd with L-selectin (LS-Rg) [1] was found to be 43 nM.

B13: 181 (ssDNA)
DNA: CTACCTACGATCTGACTAGCCATCAAGGACTTTGCCCGAAACCCTAGGTTCACGTGTGGGGCTTACTCTCATGTAGTTCC
Regarding B13, the Kd amounted to 1600 nM in the data set with P-selectin (PS-Rg), 37 nM with E-selectin (ES-Rg) and 0.084 nM with L-selectin (LS-Rg) [8].
